Experimental data published in patent US20250092135A1 (NANJING LEADS BIOLABS, published 2025).
One block for each binder: values may come before it.

Assays:
[1] = biological target: T1, Human CD3D & CD3E heterodimer protein (human, UniProt P07766 23-126; P04234 22-105); assay: BLI (ForteBio Octet RED96), antibody on AHC sensor, analyte 100-3.13 nM, 1:1 model
T1 construct: Bought recombinant heterodimer; also called human CD3 protein (Sino Biological, Cat #CT038-H2508H)
From the text: (§1) In this experiment, the binding affinity of the bispecific antibody for the human CD3 protein (Cat #CT038-H2508H, Sinobiological), cynomolgus monkey CD3 protein (Cat #CDD-C52W4, Acrobiosystems), human MUC16 protein (full-length human MUC16, the membrane-proximal end of the extracellular region of MUC16 (Table 26)), and cynomolgus monkey MUC16 protein (full-length cynomolgus monkey MUC16, the membrane-proximal end of the extracellular region of MUC16 (Table 26)) was detected using ForteBio Octet RED96 according to the manufacturer's instructions.
(§2) Briefly, an AHC sensor (ForteBio, Cat #18-5060) was placed in a running buffer (1×PBS, Hyclone, Cat #SH30256.01, containing 0.02% Tween 20, pH 7.0) and pre-equilibrated at room temperature for 10 min. […] The experimental data were fitted and calculated using a Fortebio Data Analysis software 1:1 binding model.

[2] = biological target: T2, Cynomolgus monkey CD3D & CD3E heterodimer protein (cynomolgus monkey, UniProt Q95LI5 22-117; Q95LI8 22-105); assay: as above
T2 construct: same catalogue number; also called monkey CD3 protein (Acro biosystems, Cat #CDD-C52W4)
From the text: as §1, §2

Human MUC16-His [3] = biological target: T3, Human MUC16-His (human); assay: as above
T3 construct: The entry includes the C-terminal 6xHis tag; also called membrane-proximal end of the extracellular region of the human MUC16 protein; Human MUC16 protein
T3 chain: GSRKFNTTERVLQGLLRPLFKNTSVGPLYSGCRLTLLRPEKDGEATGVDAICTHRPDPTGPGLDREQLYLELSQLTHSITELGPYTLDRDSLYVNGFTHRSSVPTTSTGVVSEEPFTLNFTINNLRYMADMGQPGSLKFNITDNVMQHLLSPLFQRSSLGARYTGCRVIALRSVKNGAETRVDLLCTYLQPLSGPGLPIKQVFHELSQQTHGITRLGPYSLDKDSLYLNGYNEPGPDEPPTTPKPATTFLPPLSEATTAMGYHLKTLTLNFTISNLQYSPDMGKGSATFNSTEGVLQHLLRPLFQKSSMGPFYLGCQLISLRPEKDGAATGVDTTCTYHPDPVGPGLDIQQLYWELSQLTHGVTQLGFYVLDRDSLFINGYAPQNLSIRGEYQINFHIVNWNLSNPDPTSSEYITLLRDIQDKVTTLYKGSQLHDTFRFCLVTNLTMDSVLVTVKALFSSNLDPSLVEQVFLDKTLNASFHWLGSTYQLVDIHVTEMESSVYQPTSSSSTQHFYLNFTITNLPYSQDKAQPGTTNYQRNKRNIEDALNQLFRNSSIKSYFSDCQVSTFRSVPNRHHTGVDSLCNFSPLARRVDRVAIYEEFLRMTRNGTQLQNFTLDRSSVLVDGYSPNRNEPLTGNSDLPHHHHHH
From the text: as §1, §2

[4] = biological target: T4, Cynomolgus monkey MUC16-His (cynomolgus monkey); assay: as above
T4 construct: The entry includes the C-terminal 6xHis tag; also called Cynomolgus monkey MUC16 protein
T4 chain: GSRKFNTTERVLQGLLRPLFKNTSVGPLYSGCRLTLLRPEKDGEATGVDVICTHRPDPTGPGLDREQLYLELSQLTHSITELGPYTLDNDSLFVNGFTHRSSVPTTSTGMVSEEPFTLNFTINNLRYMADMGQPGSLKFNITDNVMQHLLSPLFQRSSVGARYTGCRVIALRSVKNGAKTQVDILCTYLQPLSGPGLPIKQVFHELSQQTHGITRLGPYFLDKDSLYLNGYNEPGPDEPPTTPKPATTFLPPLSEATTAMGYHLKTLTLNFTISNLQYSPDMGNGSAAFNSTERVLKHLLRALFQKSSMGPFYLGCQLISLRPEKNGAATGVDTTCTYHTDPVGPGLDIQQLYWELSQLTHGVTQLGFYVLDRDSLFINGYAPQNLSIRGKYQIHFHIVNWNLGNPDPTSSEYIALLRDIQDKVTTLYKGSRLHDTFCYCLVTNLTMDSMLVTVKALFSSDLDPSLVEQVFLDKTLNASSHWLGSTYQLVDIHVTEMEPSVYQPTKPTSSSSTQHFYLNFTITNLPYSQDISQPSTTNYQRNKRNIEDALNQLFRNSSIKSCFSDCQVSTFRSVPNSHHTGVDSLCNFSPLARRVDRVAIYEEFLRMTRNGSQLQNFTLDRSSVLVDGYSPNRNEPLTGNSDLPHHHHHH
From the text: as §1, §2

[5] = biological target: T5, human CD3 protein endogenously expressed on Jurkat cells (human, UniProt P07766 23-207); assay: flow cytometry, Jurkat cells (endogenous CD3), PE anti-human IgG Fc secondary, MFI; EC50 table under the plot, unit from the axis Conc.(nM); curve flat at about 1250 up to about 33 nM, about 1900-2200 at the two top concentrations
T5 construct: whole, on cells; The whole CD3 complex is on the cells; also called CD3 on Jurkat cells; CD3 on Jurkat/NFAT-luc cells
Description: (3) Whether the anti-CD3/anti-MUC16 bispecific antibodies in the present invention could bind to the CD3 protein endogenously expressed on Jurkat cells (Cell Bank of Type Culture Collection Committee of the Chinese Academy of Sciences, Cat #SCSP-513) was determined by cell binding experiments. Detection was performed using the flow cytometry described above, with the following differences: the dilution gradient for the test bispecific antibody was: a maximum concentration of 200 nM, starting from a second concentration of 100 nM, 5-fold dilution, 10 points; the bispecific antibodies were added to Jurkat cells, and the cells were incubated at 4° C. for 30 min. The cells were washed twice with PBS, and then fluorescent secondary antibody R-PE-conjugated AffiniPure Goat Anti-Human IgG, Fcγ Fragment Specific was added. The cells were incubated at 4° C. for 30 min. The cells were washed twice with PBS and then resuspended, and finally, fluorescence signals were detected using a BD Accuri C5 (BD Bioscience) flow cytometer.

Human MUC16-His [6] = biological target: T3, Human MUC16-His; assay: BLI (ForteBio Octet RED96), antibody on AHC sensor, 1:1 model

T2 sequence (Q95LI5 22-117 limits assumed, chain 1 of 2): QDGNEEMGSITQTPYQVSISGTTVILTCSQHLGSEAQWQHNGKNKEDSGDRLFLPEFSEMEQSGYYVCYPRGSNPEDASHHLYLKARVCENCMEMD
T2 sequence (Q95LI8 22-105 limits assumed, chain 2 of 2): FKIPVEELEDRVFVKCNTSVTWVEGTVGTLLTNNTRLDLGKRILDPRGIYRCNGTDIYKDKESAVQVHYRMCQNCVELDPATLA
T1 sequence (P07766 23-126 limits assumed, chain 1 of 2): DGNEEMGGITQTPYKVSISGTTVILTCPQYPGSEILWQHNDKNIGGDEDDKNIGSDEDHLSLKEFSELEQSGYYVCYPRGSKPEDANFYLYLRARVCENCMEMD
T1 sequence (P04234 22-105 limits assumed, chain 2 of 2): as the sequence (Q95LI8 22-105 limits assumed, chain 2 of 2) above, with V5I, K15N, V20I, T32S, N33D, N34I, A64T, N74S, L83V counted along it
T5 sequence (P07766 23-207): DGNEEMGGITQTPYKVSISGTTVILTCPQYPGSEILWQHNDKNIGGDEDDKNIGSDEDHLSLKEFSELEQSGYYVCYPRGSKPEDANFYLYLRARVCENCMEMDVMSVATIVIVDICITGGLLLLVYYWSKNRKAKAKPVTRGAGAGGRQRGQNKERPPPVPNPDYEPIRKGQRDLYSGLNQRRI

Kd [1]: 44.3 nM
koff [1]: 0.00933 s⁻¹
kon [1]: 211000 M⁻¹ s⁻¹
Kd [2]: 30.4 nM
koff [2]: 0.00378 s⁻¹
kon [2]: 124000 M⁻¹ s⁻¹
Kd (Human MUC16-His [3]): 3.17 nM
koff (Human MUC16-His [3]): 0.000524 s⁻¹
kon (Human MUC16-His [3]): 166000 M⁻¹ s⁻¹
Kd [4]: 2.91 nM
koff [4]: 0.000546 s⁻¹
kon [4]: 188000 M⁻¹ s⁻¹
EC50 [5]: ~39.3 nM
B1: anti-CD3/MUC16 bispecific antibody MCH7-23L2-MCH7 (bispecific antibody, human IgG1, kappa, L234A L235A)
heavy 1: QVQLVQSGAEVKKPGASVKVSCKASGYTFTDYNIHWVRQAPGQGLEWMGYIYPYNGVSDYNQNFKSRVTMTTDTSTSTAYMELRSLRSDDTAVYYCARWDFGSGYYFDYWGQGTLVTVSSASTKGPSVFPLAPSSKSTSGGTAALGCLVKDYFPEPVTVSWNSGALTSGVHTFPAVLQSSGLYSLSSVVTVPSSSLGTQTYICNVNHKPSNTKVDKKVEPKSCEVQLVESGGGLVQPGGSLKLSCAASGFTFSTYAMNWVRQAPGKGLEWVGRIRSKYNNYATYYADSVKDRFTISRDDSKNTLYLQMNSLKTEDTAVYYCTRHGNFGNSYVSWFAYWGQGTTVTVSSGGGGSGGGGSGGGGSQAVVTQEPSLTVSPGGTVTLTCRSSTGAVTTSNYANWVQQKPGQAPRGLIGGTNKRAPGVPARFSGSLLGGKAALTLSGAQPEDEAEYFCALWYSNLWVFGGGTKLTVLGEPKSSDKTHTCPPCPAPEAAGGPSVFLFPPKPKDTLMISRTPEVTCVVVAVSHEDPEVKFNWYVDGVEVHNAKTKPREEQYNSTYRVVSVLTVLHQDWLNGKEYKCKVSNKALAAPIEKTISKAKGQPREPQVCTLPPSRDELTKNQVSLSCAVKGFYPSDIAVEWESNGQPENNYKTTPPVLDSDGSFFLVSKLTVDKSRWQQGNVFSCSVMHEALHNHYTQKSLSLSPGK
heavy 2: not shown
light: EIVLTQSPATLSLSPGERATLSCRASSSVIYMSWYQQKPGQAPRLLIYGTSTLASGIPARFSGSGSGTDFTLTISSLEPEDFAVYYCQQWSSNPFTFGQGTKLEIKRTVAAPSVFIFPPSDEQLKSGTASVVCLLNNFYPREAKVQWKVDNALQSGNSQESVTEQDSKDSTYSLSSTLTLSKADYEKHKVYACEVTHQGLSSPVTKSFNRGEC
notes: MCH7-23L2ScFv-Hole (VH-CH1-scFv-Fc) + MCH7-KIH-Knob + two light chains MCL4 LC

Kd (Human MUC16-His [6]): 2.9 nM
koff (Human MUC16-His [6]): 0.000911 s⁻¹
kon (Human MUC16-His [6]): 314000 M⁻¹ s⁻¹
B2: humanized anti-MUC16 antibody Hu-L4H7 (antibody, human IgG1, kappa, L234A L235A, V domains shown)
VH: QVQLVQSGAEVKKPGASVKVSCKASGYTFTDYNIHWVRQAPGQGLEWMGYIYPYNGVSDYNQNFKSRVTMTTDTSTSTAYMELRSLRSDDTAVYYCARWDFGSGYYFDYWGQGTLVTVSS
VL: EIVLTQSPATLSLSPGERATLSCRASSSVIYMSWYQQKPGQAPRLLIYGTSTLASGIPARFSGSGSGTDFTLTISSLEPEDFAVYYCQQWSSNPFTFGQGTKLEIKR
notes: human IgG1 with L234A, L235A, D265A, P329A and kappa; Biotinylated in the CA125 ELISA; also called humanized MUC-16 antibody
